Experimental data published in patent US8993719B2, “Methods and compositions related to mutant Kunitz domain I of TFPI-2” (The Regents of the University of California, priority 2005, dated 2015).
Where “and” joins values, the source holds several entries; their conditions need not be identical. Equal values may be shown once. Entries after “also recorded” stand apart in the source; their conditions may differ.

B1: Wild type first Kunitz-type proteinase inhibitor domain of human TFPI-2 (KD1) (other)
chain: DAAQEPTGNNAEICLLPLDYGPCRALLLRYYYDRYTQSCRQFLYGGCEGNANNFYTWEACDDACWRIEKVPKV
notes: also called WTKD1; WT KD1
B2: KD1 L17R mutant (L26R in KD1 numbering) (other)
chain: DAAQEPTGNNAEICLLPLDYGPCRARLLRYYYDRYTQSCRQFLYGGCEGNANNFYTWEACDDACWRIEKVPKV
notes: The His tag was removed; also called KD1 L26R; L26R KD1
B3: KD1 R15K mutant (R24K in KD1 numbering) (other)
chain: DAAQEPTGNNAEICLLPLDYGPCKALLLRYYYDRYTQSCRQFLYGGCEGNANNFYTWEACDDACWRIEKVPKV
notes: Made from KD1 by site-directed mutagenesis, with the His tag removed; also called R24K mutant
B4: KD1 R15K/L17R double mutant (R24K/L26R in KD1 numbering) (other)
chain: DAAQEPTGNNAEICLLPLDYGPCKARLLRYYYDRYTQSCRQFLYGGCEGNANNFYTWEACDDACWRIEKVPKV
notes: Made from KD1 by site-directed mutagenesis, with the His tag removed

Tests used:
Mouse plasmin [1] = target: Mouse plasmin (mouse, UniProt P20918 98-812, limits assumed); assay: mouse plasmin inhibition assay
Mouse plasmin, sequence (P20918 98-812 limits assumed): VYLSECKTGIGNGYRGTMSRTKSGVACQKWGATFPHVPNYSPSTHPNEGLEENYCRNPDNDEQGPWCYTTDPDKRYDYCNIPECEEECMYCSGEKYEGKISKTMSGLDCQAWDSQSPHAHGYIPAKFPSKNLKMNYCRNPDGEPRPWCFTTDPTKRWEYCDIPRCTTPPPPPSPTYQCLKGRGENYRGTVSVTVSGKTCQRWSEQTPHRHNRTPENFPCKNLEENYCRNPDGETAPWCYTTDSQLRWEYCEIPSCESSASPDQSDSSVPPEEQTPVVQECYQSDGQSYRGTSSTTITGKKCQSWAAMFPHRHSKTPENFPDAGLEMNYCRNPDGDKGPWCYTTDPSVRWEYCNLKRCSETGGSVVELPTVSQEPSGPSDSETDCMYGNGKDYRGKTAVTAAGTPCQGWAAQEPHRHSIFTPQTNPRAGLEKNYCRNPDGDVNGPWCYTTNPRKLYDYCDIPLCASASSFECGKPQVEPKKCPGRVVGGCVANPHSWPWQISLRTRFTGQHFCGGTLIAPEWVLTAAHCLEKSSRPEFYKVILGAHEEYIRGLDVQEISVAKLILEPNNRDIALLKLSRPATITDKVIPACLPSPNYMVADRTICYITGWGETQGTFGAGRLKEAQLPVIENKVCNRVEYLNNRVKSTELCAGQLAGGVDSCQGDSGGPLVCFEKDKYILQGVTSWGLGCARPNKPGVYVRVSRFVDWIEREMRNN

Human plasmin [2] = target: T1, Human plasmin (Homo sapiens, UniProt P00747); assay: Plasmin inhibition assay (residual amidolytic activity, chromogenic substrate S-2251); format: biochemical; conditions: for fold stronger binding to plasmin than WT KD1: relative to WT KD1
T1 construct: purchased Enzyme research laborotories
T1 sequence (P00747 581-810 limits assumed): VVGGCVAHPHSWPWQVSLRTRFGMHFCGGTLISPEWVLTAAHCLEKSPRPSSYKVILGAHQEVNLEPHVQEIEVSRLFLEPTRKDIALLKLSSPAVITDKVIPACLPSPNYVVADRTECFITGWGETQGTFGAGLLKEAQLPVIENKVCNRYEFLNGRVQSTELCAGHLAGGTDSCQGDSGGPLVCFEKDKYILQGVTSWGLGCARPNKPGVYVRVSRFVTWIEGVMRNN
T1 sequence (P00747 97-580 partner limits assumed): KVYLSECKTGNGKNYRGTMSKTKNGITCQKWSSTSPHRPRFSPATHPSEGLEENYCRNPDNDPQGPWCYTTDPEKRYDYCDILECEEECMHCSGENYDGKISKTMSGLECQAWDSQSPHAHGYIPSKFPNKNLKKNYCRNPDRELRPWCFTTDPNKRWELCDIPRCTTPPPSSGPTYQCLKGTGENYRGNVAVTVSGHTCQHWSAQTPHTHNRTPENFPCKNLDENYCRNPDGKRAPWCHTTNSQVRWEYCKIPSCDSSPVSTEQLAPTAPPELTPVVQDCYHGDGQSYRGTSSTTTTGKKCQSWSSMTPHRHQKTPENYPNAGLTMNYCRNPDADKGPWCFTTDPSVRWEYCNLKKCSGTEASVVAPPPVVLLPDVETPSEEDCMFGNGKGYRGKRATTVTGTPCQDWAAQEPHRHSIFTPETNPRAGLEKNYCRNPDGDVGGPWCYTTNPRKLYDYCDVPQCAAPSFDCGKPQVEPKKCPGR
Excerpt: Materials and methods: The chromogenic substrates H-D-Val-Leu-Lys-p-nitroanilide (S-2251) was purchased from DiaPharma Group Inc. (West Chester, Ohio). Human plasmin was purchased from Enzyme research laborotories. Bovine aprotinin (BPTI) was used from Zymogenetics. Escherichia coli strain BL21(DE3)pLys and pET28a expression vector were products of Novagen Inc. (Madison, Wis.). The QuikChange® site-directed mutagenesis kit was obtained from Stratagene (La Jolla, Calif.).
(§1) Plasmin Inhibition Assays. […] The chromogenic substrate S-2251 was then added, and residual amidolytic activity was measured in a Molecular Devices UVmax kinetic microplate reader at different end points (0.5 and 1 hr) and S2251 (0.5 and 1 mM) concentrations. Plasmin inhibitory data were analyzed according to the quadratic binding expression.

mouse plasmin [3] = target: mouse plasmin (Mus musculus, UniProt P20918); assay: Mouse plasmin inhibition; format: biochemical; conditions: 1 μM inhibitor; FIG. 6
mouse plasmin, sequence (P20918 582-812 limits assumed): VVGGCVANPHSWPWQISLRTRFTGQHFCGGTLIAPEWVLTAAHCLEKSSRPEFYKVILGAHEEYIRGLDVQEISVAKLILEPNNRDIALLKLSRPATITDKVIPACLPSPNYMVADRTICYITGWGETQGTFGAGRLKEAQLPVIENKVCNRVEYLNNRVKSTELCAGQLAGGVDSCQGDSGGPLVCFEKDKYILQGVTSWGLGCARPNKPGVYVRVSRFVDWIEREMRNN
mouse plasmin, sequence (P20918 98-581 partner limits assumed): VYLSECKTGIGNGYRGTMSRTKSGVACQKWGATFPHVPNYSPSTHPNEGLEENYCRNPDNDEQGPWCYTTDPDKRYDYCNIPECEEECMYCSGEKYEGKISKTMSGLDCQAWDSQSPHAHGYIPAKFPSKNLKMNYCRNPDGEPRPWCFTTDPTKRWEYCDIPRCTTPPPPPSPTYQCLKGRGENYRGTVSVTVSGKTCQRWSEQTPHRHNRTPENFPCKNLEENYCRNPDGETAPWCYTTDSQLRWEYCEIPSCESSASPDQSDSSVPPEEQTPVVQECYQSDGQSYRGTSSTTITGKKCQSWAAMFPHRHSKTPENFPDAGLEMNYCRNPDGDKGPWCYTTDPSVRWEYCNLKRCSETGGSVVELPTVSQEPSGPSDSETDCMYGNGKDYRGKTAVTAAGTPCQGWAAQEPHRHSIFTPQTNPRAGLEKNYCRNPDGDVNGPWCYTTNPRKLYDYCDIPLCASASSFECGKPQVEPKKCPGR
Excerpt: Both WT KD1 and L26R inhibited mouse plasmin effectively. […] Since both the wild-type and the mutant inhibit mouse plasmin, one can use the mutant to show efficacy in vivo in an animal model of bleeding.

[4] = system: intrinsic pathway of blood coagulation; assay: aPTT (activated partial thromboplastin time) of normal plasma; format: biochemical; conditions: normal human plasma, 5 min at 37° C., FIG. 5
Procedure: Seventy-five microliter of 25 mM CaCl2 prewarmed to 37° C. was then added and the time needed to form the clot through the intrinsic pathway of blood coagulation was noted.
A common procedure to test inhibition of clotting is to examine the aPTT (activated partial thromboplastin time) of normal plasma. In this test, surface activator plus phospholipid was mixed with normal plasma in equal amounts (75 microliter). […] Seventy-five microliter of 25 mM CaCl2 prewarmed to 37° C. was then added and the time needed to form the clot was noted.
In the aPTT system, coagulation is initiated by the activation of factor XII to Factor XIIa by contact phase involving the kallikrein system. Factor XIIa then activates factor XI to factor XIa in the coagulation cascade.

[5] = system: mouse tail vein bleeding model; assay: Mouse tail vein bleeding model; format: in vivo; conditions: intravenously, about 100 microgram/mouse, compared to saline control
Excerpt: A mouse tail vein bleeding model has been described to study the efficacy of a snake plasmin inhibitor (Masci et al. Blood Coagulation and Fibrinolysis 2000, Vol 11, pages 385-393). […] The doses of the plasmin inhibitors used in these experiments were similar to that used during human CPB (cardiopulmonary bypass) surgery, adjusted to the mouse weight. The Animal Ethics Committee of UCLA approved all mice experiments and the dose used in human surgery adjusted to mouse weight was a realistic basis for these initial studies. The serum BUN/Creatinine levels were normal after two days and seven days following administration of the drug.

kallikrein = kallikrein (Homo sapiens, UniProt P03952); conditions: Petersen et al 1996; cited from earlier work
kallikrein, sequence (P03952 391-638 limits assumed): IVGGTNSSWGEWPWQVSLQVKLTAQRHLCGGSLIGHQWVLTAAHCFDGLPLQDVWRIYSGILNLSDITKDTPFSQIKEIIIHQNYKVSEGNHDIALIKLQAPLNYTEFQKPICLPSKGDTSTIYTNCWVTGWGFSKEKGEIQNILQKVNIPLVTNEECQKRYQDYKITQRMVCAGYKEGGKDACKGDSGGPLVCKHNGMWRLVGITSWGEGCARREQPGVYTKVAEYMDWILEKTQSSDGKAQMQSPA
kallikrein, sequence (P03952 20-390 partner limits assumed): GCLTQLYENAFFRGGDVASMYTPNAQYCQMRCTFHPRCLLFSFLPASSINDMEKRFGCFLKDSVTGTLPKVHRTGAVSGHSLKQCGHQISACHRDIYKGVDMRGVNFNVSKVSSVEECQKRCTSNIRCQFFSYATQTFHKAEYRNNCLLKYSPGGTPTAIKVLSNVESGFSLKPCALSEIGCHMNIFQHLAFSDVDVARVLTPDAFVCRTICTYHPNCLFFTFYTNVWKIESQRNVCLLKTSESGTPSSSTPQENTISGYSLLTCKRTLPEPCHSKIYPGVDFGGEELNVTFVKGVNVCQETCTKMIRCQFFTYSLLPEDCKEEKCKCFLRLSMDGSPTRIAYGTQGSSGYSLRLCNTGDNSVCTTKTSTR

factor XIa = factor XIa (Homo sapiens, UniProt P03951); conditions: Petersen et al 1996; cited from earlier work
factor XIa, sequence (P03951 388-625 limits assumed): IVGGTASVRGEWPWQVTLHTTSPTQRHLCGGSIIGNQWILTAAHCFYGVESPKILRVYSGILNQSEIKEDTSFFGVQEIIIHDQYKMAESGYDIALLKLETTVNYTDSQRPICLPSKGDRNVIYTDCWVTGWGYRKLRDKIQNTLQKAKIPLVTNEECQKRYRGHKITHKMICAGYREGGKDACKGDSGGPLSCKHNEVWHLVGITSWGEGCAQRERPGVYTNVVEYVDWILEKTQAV
factor XIa, sequence (P03951 19-387 partner limits assumed): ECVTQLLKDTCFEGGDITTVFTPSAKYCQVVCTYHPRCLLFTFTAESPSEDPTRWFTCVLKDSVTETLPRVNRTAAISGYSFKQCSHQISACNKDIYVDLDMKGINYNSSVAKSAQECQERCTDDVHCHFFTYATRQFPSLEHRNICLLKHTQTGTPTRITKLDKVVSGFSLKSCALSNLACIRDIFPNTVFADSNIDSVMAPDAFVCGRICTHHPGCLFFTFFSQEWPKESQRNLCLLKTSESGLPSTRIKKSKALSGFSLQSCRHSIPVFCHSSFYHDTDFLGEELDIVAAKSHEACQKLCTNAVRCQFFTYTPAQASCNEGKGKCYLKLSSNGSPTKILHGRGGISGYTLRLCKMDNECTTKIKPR

Human plasmin [6] = target: T2, Human plasmin (human, UniProt P00747 97-810, limits assumed); assay: plasmin inhibition assay, residual amidolytic activity on S-2251
T2 construct: Bought enzyme
T2 sequence (P00747 97-810 limits assumed): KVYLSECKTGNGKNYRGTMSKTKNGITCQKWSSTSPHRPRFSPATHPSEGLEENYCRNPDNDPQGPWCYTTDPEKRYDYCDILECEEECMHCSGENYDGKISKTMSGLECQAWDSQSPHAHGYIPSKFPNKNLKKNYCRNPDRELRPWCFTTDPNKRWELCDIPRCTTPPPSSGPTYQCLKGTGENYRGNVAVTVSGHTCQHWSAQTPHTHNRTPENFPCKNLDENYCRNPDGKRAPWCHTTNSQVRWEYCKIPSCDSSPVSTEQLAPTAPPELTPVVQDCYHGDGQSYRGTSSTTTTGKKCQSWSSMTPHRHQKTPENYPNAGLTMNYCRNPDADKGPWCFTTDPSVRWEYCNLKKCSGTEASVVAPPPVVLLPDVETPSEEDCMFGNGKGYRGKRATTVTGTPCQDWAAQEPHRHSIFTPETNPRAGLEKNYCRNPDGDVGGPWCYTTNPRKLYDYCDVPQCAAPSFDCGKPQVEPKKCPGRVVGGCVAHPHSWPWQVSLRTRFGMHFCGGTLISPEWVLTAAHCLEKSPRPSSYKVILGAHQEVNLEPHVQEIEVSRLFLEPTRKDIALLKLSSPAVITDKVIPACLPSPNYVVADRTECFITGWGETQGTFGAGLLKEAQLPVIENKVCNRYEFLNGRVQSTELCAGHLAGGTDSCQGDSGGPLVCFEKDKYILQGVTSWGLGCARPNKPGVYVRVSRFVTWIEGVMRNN
Procedure: as §1
In control experiments, it was first studied if there was any substrate-induced displacement of bound inhibitor by increasing substrate concentrations.

Human plasmin [7] = target: T2, Human plasmin; assay: plasmin inhibition assay, residual amidolytic activity on S-2251, quadratic binding fit
Procedure: as §1
(§2) The incubation time was 1 hr at 37° C. and substrate concentration was 1 mM for the remaining activity measurements.

Human plasmin [8] = target: T2, Human plasmin; assay: plasmin inhibition assay, 1 hr at 37° C., 1 mM S-2251
Procedure: as §1, §2

Row | Molecule | Kd (Mouse plasmin [1]) | substrate-induced displacement of bound inhibitor (Human plasmin [2]; increasing S-2251 concentration (0.5 and 1 mM)) | inhibition of mouse plasmin at 1 μM (mouse plasmin [3]) | inhibition of intrinsic pathway of coagulation (prolongation of aPTT clotting time) ([4]; listed as KD1 WT) | reduction in blood loss [5] | inhibition of kallikrein (kallikrein) | inhibition of factor XIa (factor XIa) | Ki (Human plasmin [6]) | Kd (Human plasmin [7]) | fold stronger binding to plasmin than WT KD1 (Human plasmin [2]; listed as L17R) | inhibition of intrinsic pathway of coagulation (prolongation of aPTT clotting time) [4] | inhibition of intrinsic pathway of coagulation (prolongation of aPTT clotting time) ([4]; listed as L26R KD1) | fold stronger binding than WT KD1 (Human plasmin [6]) | fold stronger binding to plasmin than WT KD1 (Human plasmin [2]) | Kd (Human plasmin [8]) | fold difference of Kd against WT KD1 (Human plasmin [8]) | fold stronger binding than the R15K mutant (Human plasmin [6])
1 | B1 | ~80 nM | apparently no displacement of bound inhibitor; also recorded: not any significant substrate induced displacement of inhibitor | Complete inhibition | prolongation of the aPTT; also recorded: inhibit the intrinsic pathway of coagulation | 67-70% | inhibits both kallikrein and factor XIa | inhibits both kallikrein and factor XIa | 22 nM | 22 nM | – | – | – | – | – | – | – | –
2 | B2 | ~80 nM | – | Complete inhibition | – | 67-70% | – | – | 6 nM | – | approximately 4 fold | no inhibition (prolongation) of aPTT; also recorded: loses activity as an anticoagulant; also recorded: ineffective | no effect on clotting | ~4 fold | – | – | – | –
3 | B3 | – | – | – | – | – | – | – | 10 nM | – | – | – | – | – | two-fold different | 9 to 11 nM and 10 nM | 2 fold | –
4 | B4 | – | – | – | – | – | – | – | 3 nM | – | – | – | – | 7 fold | – | 3 nM | – | ~2 fold
